From PMC10968392, “Fluorometric and Colorimetric Method for SARS-CoV-2 Detection Using Designed Aptamer Display Particles”

B1: C4-AdP (SpS1-C4 displayed on magnetic particle) (ssDNA)
DNA: GAACATTGGCGTCCGTGAGCAGCTCGTGGTTGTTTGCTTGTATACTTTTGTGGTTTATCTTGTTTCTGATCACTTCCTCAAACGCCCAA
modifications: 5' amino linkage to bead
B2: C1-AdP (SpS1-C1 displayed on magnetic particle) (ssDNA)
DNA: GAACATTGGCGTCCGTGAGTGAGACCATAGTCCAGCGAACTAAACCTACCCTAAAGGGCAAGGAAGACGGGCACTTCCTCAAACGCCCAA
modifications: 5' amino linkage to bead

Biological target: SARS-CoV-2 spike protein extracellular domain (ECD), biotinylated (SARS-CoV-2, UniProt P0DTC2)
Assay: bead-based flow cytometry
Details: protein: commercial; chain copies: 3

Row | Binder | binding result
1 | B1 | binds
2 | B2 | binds
